Substrate in the series: Nc1ncnc2c1ncn2[C@@H]1O[C@H](COP(=O)(O)OP(=O)(O)OP(=O)(O)O)[C@@H](O)[C@H]1O
Kind of series: purified protein. Particulars: nanodisc-embedded complex (POPG), 0-4 mM ATP, 37 °C, 30 min. The class given is biochemical, Escherichia coli.

B1: MlaFEDB (Escherichia coli K-12) (protein)
chain: MEQSVANLVDMRDVSFTRGNRCIFDNISLTVPRGKITAIMGPSGIGKTTLLRLIGGQIAPDHGEILFDGENIPAMSRSRLYTVRKRMSMLFQSGALFTDMNVFDNVAYPLREHTQLPAPLLHSTVMMKLEAVGLRGAAKLMPSELSGGMARRAALARAIALEPDLIMFDEPFVGQDPITMGVLVKLISELNSALGVTCVVVSHDVPEVLSIADHAWILADKKIVAHGSAQALQANPDPRVRQFLDGIADGPVPFRYPAGDYHADLLPGS
notes: mlaFEDCB operon in pET20b, C-terminal His-tag on MlaB; host E. coli C43(DE3); purified in DDM, reconstituted in MSP1D1/POPG nanodisc; MlaC only in traces (by MS); with Intermembrane phospholipid transport system permease protein MlaE
Turning to B1, the Km (in general, the concentration of substrate that gives half-maximal velocity) was found to be 0.09 ± 0.02 mM.

Values taken from publication PMC7784689, “Structural mechanism of phospholipids translocation by MlaFEDB complex” (Cell Research, 2020).
